Values belong to the binder of their own block, whether it stands above or below them.
Experiments:
Hsp90 = Hsp90 ( (Arabidopsis H. vulgare or …, UniProt Q7XJ80)); assay: competition GST pull-down; ATPase stimulation
GST-Rar1 (wild type) = target: T1, GST-Rar1 (wild type) (Arabidopsis thaliana (Mouse-ear cress), UniProt Q9SE33); assay: GST pull-down; strengthened by Sgt1; ADP enhances the CHORDI-Hsp90 interaction
T1 chain: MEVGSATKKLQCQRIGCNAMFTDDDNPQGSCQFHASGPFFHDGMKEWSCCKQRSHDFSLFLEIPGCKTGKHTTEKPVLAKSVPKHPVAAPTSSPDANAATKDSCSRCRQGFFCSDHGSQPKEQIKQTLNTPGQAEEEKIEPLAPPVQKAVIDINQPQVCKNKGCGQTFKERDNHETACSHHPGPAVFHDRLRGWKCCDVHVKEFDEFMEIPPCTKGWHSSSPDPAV

Hsp90 (, sequence (Q7XJ80 entry or part of it): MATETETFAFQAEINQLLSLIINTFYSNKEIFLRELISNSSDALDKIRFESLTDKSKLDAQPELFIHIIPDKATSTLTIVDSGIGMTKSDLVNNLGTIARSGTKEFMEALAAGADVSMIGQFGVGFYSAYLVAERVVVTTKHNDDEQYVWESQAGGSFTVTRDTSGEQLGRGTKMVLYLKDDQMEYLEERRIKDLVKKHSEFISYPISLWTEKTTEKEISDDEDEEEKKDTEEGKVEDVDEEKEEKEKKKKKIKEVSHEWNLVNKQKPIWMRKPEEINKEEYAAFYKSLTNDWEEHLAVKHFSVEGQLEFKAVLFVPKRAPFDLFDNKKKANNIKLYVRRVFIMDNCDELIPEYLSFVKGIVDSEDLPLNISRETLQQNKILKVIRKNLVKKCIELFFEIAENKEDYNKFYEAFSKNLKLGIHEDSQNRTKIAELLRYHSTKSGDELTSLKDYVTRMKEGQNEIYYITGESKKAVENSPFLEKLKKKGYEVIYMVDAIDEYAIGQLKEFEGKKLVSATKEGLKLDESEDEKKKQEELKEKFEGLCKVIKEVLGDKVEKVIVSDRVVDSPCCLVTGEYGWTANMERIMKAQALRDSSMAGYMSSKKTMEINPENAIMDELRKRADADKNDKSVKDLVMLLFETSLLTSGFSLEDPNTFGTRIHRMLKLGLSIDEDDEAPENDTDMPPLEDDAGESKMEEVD

- binding result (Hsp90): binds
B1: Rar1 (wild type, not GST-tagged) (protein)
chain: T1 chain

- binding result (GST-Rar1 (wild type)): binds
B2: Hsp90 (protein)
chain: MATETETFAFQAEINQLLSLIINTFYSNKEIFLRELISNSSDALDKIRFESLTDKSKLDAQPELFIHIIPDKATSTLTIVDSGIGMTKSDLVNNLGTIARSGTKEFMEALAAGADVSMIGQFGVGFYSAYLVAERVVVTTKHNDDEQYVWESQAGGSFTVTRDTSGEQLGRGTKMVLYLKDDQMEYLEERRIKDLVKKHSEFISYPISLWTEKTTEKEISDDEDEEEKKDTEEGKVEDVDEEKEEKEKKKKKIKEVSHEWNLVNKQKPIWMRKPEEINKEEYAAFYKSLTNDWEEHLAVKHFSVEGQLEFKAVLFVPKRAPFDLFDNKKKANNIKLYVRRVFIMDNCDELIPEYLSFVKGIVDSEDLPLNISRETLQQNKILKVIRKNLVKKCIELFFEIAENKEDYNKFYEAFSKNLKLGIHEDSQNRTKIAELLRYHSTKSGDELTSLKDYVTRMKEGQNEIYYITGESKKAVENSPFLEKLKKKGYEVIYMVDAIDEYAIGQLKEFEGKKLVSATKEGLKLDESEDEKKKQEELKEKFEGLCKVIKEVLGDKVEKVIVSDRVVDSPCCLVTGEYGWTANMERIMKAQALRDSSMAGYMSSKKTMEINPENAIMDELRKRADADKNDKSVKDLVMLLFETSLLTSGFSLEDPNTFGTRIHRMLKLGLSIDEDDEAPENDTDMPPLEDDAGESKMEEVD

From PMC2935968 (2010)
